Non-standard residues stand in square brackets, D forms with d. No end group written: not given here. pT = C[C@@H](OP(=O)(O)O)[C@H](N)C(=O)O; pS = N[C@@H](COP(=O)(O)O)C(=O)O
Biological target: T1, VSP-C363S (voltage-sensing phosphatase, aa 241-576) (C. intestinalis, UniProt Q4W8A1 241-576, C363S)
T1 sequence (looked up): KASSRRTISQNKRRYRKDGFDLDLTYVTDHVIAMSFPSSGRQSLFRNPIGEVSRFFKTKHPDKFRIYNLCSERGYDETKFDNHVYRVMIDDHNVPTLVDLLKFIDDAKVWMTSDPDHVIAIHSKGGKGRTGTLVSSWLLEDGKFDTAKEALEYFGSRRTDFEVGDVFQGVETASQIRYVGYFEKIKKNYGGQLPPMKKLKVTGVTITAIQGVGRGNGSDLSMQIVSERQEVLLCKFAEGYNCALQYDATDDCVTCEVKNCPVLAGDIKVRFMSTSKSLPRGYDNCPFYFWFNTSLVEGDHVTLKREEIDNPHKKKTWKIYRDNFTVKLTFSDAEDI
Test: fluorescence polarisation

binding result: binds
B1: 4p-T2, tetraphosphorylated PTEN C-tail peptide (15 aa) (peptide)
peptide: CRY[pS]D[pT][pT]D[pS]DPENEG

Source: article PMC8549118 (Nature structural & molecular biology, 2021)
